From patent US12371675B2, “Process and microorganism for synthesis of adipic acid from carboxylic acids” (THE GOVERNING COUNCIL OF THE UNIVERSITY OF TORONTO, priority 2015, dated 2025)

Assays:
O=C(O)CCCCCO = assay: purified protein, by the assay type; conditions: pH 7.5
O=C(O)CCCO = assay: purified protein, by the assay type; conditions: other: ATP/NADPH dependent reduction; pH 7.5
CCCC=O [1] = assay: AR kinetics, aldehyde reduction followed by NAD(P)H oxidation; type: biochemical, Pseudomonas aeruginosa; conditions: other: butyraldehyde, pH 7.5
From the text: (§1) 28 aldehyde reductases from different bacteria were cloned and overexpressed in E. coli. Enzymes purified using affinity chromatography on Ni-NTA resin were screened for reductase activity with adipaldehyde and butyraldehyde in presence of both NADPH and NADH (Table 5). Butyraldehyde was used as a substrate substitute for 4-oxo-butanal, which is not commercially available. Reactions were followed spectrophotometrically, by cofactor oxidation at 340 nm.
(§2) Enzyme activity of purified ARs was measured spectrophotometrically in 96-well plates Reaction mixtures contained 100 mM HEPES buffer (pH 7.5), 0.4 mM NADH/NADPH, 10 mM adipaldehyde or butylaldehyde, and proteins (10 μg for adipaldehyde screen, 2 μg for butyraldehyde screen) in a final volume of 200 μL Reaction mixture for adipaldehyde screening contained 1.8% DMSO. Enzyme reactions were monitored by following the decrease in absorbance at 340 nm (ε340 nm=6,220/M·cm) due to oxidation of NAD(P)H to NAD(P)+.
(§3) ARs RHA1_ro05279, PA1146, SC00229, PP_3370 were characterised for saturation with adipaldehyde, PP_3370, PSPTO_2097, RHA1_ro05279, SC00229, TM_0111, PA1146 were characterised for butyraldehyde saturation (Table 10). […] For both substrates maximal kcat/Km with minimal Km values was shown by AR PP 3370 from Pseudomonas putida.

O=CCCCCC=O = assay: as above; type: biochemical, Pseudomonas aeruginosa; conditions: other: adipaldehyde; cofactor NADH; 1,8% DMSO; pH 7.5
From the text: as §1, §2, §3

CCCC=O [2] = assay: as above; type: biochemical, Pseudomonas syringae; conditions: other: butyraldehyde; cofactor NADPH; pH 7.5
From the text: as §1, §2, §3

Mycobacterium paratuberculosis carboxylate reductase MAP_1040c, SEQ ID NO: 38 (Mycobacterium avium subsp. paratuberculosis MAP4)
Km (O=C(O)CCCCCO): 70.1 ± 7.04 mM

Mycobacterium smegmatis carboxylate reductase MSMEG_2956, SEQ ID NO: 70 (Mycolicibacterium smegmatis MC2 155)
Km (O=C(O)CCCO): 69.57 ± 4.16 mM | kcat (O=C(O)CCCO): 0.513 ± 0.017 s⁻¹ | kcat/Km (O=C(O)CCCO): 7.37 ± 0.24 M⁻¹ s⁻¹

Mycobacterium smegmatis carboxylate reductase MSMEG_5739, SEQ ID NO: 37 (Mycolicibacterium smegmatis MC2 155)
Km (O=C(O)CCCO): 37.84 ± 2.39 mM | kcat (O=C(O)CCCO): 0.51 ± 0.017 s⁻¹ | kcat/Km (O=C(O)CCCO): 13.5 ± 0.45 M⁻¹ s⁻¹

Mycobacterium smegmatis carboxylate reductase MSMEI_5586, SEQ ID NO: 35 (Mycolicibacterium smegmatis MC2 155)
Km (O=C(O)CCCO): 19.63 ± 4.88 mM | kcat (O=C(O)CCCO): 0.152 ± 0.013 s⁻¹ | kcat/Km (O=C(O)CCCO): 7.74 ± 0.66 M⁻¹ s⁻¹

Pseudomonas aeruginosa aldehyde reductase PA1146, SEQ ID NO: 43 (Pseudomonas aeruginosa PAO1)
Km (CCCC=O [1]; cofactor NADH): 15.6 ± 5.94 mM | kcat (CCCC=O [1]; cofactor NADH): 9.01 ± 01.9 s⁻¹ | kcat/Km (CCCC=O [1]; cofactor NADH): (5.76 ± 1.22) × ×10^2 M^−1 · s^−1 | Km (CCCC=O [1]; cofactor NADPH): 3.37 ± 0.9 mM | kcat (CCCC=O [1]; cofactor NADPH): 0.84 ± 0.08 s⁻¹ | kcat/Km (CCCC=O [1]; cofactor NADPH): (2.49 ± 0.24) × ×10^2 M^−1 · s^−1 | Km (O=CCCCCC=O): 9.0 ± 1.99 mM | kcat (O=CCCCCC=O): 5.45 ± 0.56 s⁻¹ | kcat/Km (O=CCCCCC=O): (6.02 ± 0.06) × ×10^2 M^−1 · s^−1

Pseudomonas syringae aldehyde reductase PSPTO_2097, SEQ ID NO: 46 (Pseudomonas syringae pv. tomato str. DC3000)
Km (CCCC=O [2]): 10.3 ± 1.06 mM | kcat (CCCC=O [2]): 12.2 ± 0.63 s⁻¹ | kcat/Km (CCCC=O [2]): (1.18 ± 0.06) × ×10^3 M^−1 · s^−1
